This passage reports Kd results from publication PMC10786891, “Massively parallel profiling of RNA-targeting CRISPR-Cas13d”.

B1: target 1 C4A,C21U (mixed)
RNA 1: CACCCGUGCAAAAAUGCAGGGGUCUAAAACUGAGCGGAUAACCUCUCUAUGG
RNA 2: GGGAAUGGAUCCACAUCUACGAAUUCGUACUAUAGAGAGGUUAUCCGAUCACCGAGAUCGGAAGAGCACACGU
B2: target 1 insG 3' of 10,insA 3' of 6 (mixed)
RNA 1: B1 RNA 1
RNA 2: GGGAAUGGAUCCACAUCUACGAAUUCGUACCAUAGAGAGGUUGAUCCAGCUCACCGAGAUCGGAAGAGCACACGU
B3: target 1 C6U,U10G (mixed)
RNA 1: B1 RNA 1
RNA 2: B1 RNA 2 with U31C, U42G, C46U, A48C
B4: target 1 insG 3' of 18,insA 3' of 7 (mixed)
RNA 1: B1 RNA 1
RNA 2: B2 RNA 2 with A36G, G37A, A38G, G39A, U41G, G43U, C47A, A48C
B5: target 1 C4A,A9G (mixed)
RNA 1: B1 RNA 1
RNA 2: B1 RNA 2 with U31C, A43G
B6: target 1 insC 3' of 14,insU 3' of 12 (mixed)
RNA 1: B1 RNA 1
RNA 2: B2 RNA 2 with G39C, U41G, G43U, A44U, U45A, C46U, A48C
B7: target 1 insU 3' of 15,insC 3' of 15 (mixed)
RNA 1: B1 RNA 1
RNA 2: GGGAAUGGAUCCACAUCUACGAAUUCGUACCAUAGAGUCAGGUUAUCCGCUCACCGAGAUCGGAAGAGCACACGU
B8: target 1 A9G,G13A (mixed)
RNA 1: B1 RNA 1
RNA 2: B1 RNA 2 with U31C, G39A, A43G, A48C
B9: target 1 G12A (mixed)
RNA 1: B1 RNA 1
RNA 2: B1 RNA 2 with U31C, G40A, A48C
B10: target 1 insA 3' of 15 (mixed)
RNA 1: B1 RNA 1
RNA 2: GGGAAUGGAUCCACAUCUACGAAUUCGUACCAUAGAGAAGGUUAUCCGCUCACCGAGAUCGGAAGAGCACACGU
B11: target 1 A1C,G12U (mixed)
RNA 1: B1 RNA 1
RNA 2: B1 RNA 2 with U31C, G40U, A48C, A51C
B12: target 1 insA 3' of 5,insG 3' of 3 (mixed)
RNA 1: B1 RNA 1
RNA 2: B2 RNA 2 with G43A, A44U, U45C, C47G, G49C, C50U, U51G
B13: target 1 C2A,G17C (mixed)
RNA 1: B1 RNA 1
RNA 2: B1 RNA 2 with U31C, G35C, A48C, C50A
B14: target 1 C6G,G15U (mixed)
RNA 1: B1 RNA 1
RNA 2: B1 RNA 2 with U31C, G37U, C46G, A48C
B15: target 1 C21A (mixed)
RNA 1: B1 RNA 1
RNA 2: B1 RNA 2 with U31A, A48C
B16: target 1 A1G,G12A (mixed)
RNA 1: B1 RNA 1
RNA 2: B1 RNA 2 with U31C, G40A, A48C, A51G
B17: target 1 A1U,G12A (mixed)
RNA 1: B1 RNA 1
RNA 2: B1 RNA 2 with U31C, G40A, A48C, A51U
B18: target 1 C4U,U11G (mixed)
RNA 1: B1 RNA 1
RNA 2: B1 RNA 2 with U31C, U41G, A48U
B19: target 1 insG 3' of 8,insU 3' of 6 (mixed)
RNA 1: B1 RNA 1
RNA 2: B2 RNA 2 with G43A, A44U, U45G, A48U
B20: target 1 G12A,U19A (mixed)
RNA 1: B1 RNA 1
RNA 2: B1 RNA 2 with U31C, U33A, G40A, A48C
B21: target 1 insU 3' of 9,insU 3' of 9 (mixed)
RNA 1: B1 RNA 1
RNA 2: B2 RNA 2 with G43A, A44U, C46U, A48C
B22: target 1 C7A,A20C (mixed)
RNA 1: B1 RNA 1
RNA 2: B1 RNA 2 with U31C, A32C, C45A, A48C
B23: target 1 insC 3' of 17,insA 3' of 8 (mixed)
RNA 1: B1 RNA 1
RNA 2: B2 RNA 2 with A36C, G37A, A38G, G39A, U41G, G43U, C46A, A48C
B24: target 1 insG 3' of 16,insG 3' of 7 (mixed)
RNA 1: B1 RNA 1
RNA 2: B2 RNA 2 with A38G, G39A, U41G, G43U, C47G, A48C
B25: target 1 insC 3' of 3,insC 3' of 3 (mixed)
RNA 1: B1 RNA 1
RNA 2: B2 RNA 2 with G43A, A44U, U45C, C47G, A48C, G49U, U51C
B26: target 1 insU 3' of 7,insU 3' of 6 (mixed)
RNA 1: B1 RNA 1
RNA 2: B2 RNA 2 with G43A, A44U, U45C, C46U, A48U
B27: target 1 complement block 5-11 (mixed)
RNA 1: B1 RNA 1
RNA 2: B1 RNA 2 with U31C, U41A, U42A, A43U, U44A, C45G, C46G, G47C, A48C
B28: target 1 insU 3' of 21,insU 3' of 14 (mixed)
RNA 1: B1 RNA 1
RNA 2: B7 RNA 2 with A32U, U33A, A34U, G35A, A36G, G37A, U38G, C39A, A40U
B29: target 1 G13U,A20C (mixed)
RNA 1: B1 RNA 1
RNA 2: B1 RNA 2 with U31C, A32C, G39U, A48C
B30: target 1 A1G,G12U (mixed)
RNA 1: B1 RNA 1
RNA 2: B1 RNA 2 with U31C, G40U, A48C, A51G
B31: target 1 C7A,U19G (mixed)
RNA 1: B1 RNA 1
RNA 2: B1 RNA 2 with U31C, U33G, C45A, A48C
B32: target 1 G12U (mixed)
RNA 1: B1 RNA 1
RNA 2: B1 RNA 2 with U31C, G40U, A48C
B33: target 1 G5U,U10G (mixed)
RNA 1: B1 RNA 1
RNA 2: B1 RNA 2 with U31C, U42G, G47U, A48C

Numbering of substitutions follows the chain as printed. In names and notes the source's numbering stands.

For this data set, the target named is T1, EsCas13d, nuclease-dead (Eubacterium siraeum, UniProt B0MS50, R295A;H300A;R849A;H854A).
T1 sequence: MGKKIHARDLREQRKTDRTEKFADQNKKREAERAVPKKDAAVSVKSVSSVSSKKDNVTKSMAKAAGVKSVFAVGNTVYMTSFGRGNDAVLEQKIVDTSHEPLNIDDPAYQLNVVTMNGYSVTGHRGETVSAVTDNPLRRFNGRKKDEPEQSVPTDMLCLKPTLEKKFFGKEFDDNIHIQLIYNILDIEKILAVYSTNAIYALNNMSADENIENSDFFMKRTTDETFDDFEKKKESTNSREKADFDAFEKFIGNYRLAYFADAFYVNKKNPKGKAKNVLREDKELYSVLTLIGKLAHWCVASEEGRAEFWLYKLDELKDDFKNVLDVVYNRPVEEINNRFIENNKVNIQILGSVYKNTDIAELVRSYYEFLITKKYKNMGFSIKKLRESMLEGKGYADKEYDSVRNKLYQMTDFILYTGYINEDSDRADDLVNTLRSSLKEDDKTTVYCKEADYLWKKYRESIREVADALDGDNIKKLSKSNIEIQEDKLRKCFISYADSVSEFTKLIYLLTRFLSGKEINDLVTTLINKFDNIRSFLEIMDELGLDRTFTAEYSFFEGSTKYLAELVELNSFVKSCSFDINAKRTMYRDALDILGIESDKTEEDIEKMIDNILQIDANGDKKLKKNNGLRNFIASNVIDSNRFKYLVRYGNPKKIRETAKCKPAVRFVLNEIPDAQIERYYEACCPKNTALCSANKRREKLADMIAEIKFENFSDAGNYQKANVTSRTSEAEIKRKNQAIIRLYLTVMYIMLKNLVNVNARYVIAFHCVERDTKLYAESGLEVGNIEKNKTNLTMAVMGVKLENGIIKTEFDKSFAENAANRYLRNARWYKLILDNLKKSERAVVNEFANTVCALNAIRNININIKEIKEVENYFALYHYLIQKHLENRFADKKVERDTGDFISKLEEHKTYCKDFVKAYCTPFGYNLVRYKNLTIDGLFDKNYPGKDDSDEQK
Nature of the data set: crRNA (strand 1, pre-loaded); Mg2+; 40 mM Tris-HCl pH 7.5, 150 mM NaCl, 6 mM MgCl2, 1 mM DTT, 0.1% Tween-20, 0.2 mg/ml BSA; 25 C; 10 min per concentration, then washed. The settings on record: tags: His6-TwinStrep-SUMO cleaved; N-terminal SNAP kept (SNAP-Surface 488); label: 3' end held by stalled T7 RNA polymerase.
The Kd is the equilibrium constant for the complex coming apart. A higher Kd goes with lower affinity. In the case of B1, the Kd stood at 4.4 ± 0.7 nM.

With B2, the dissociation constant Kd was 41 ± 6 nM. Turning to B3, the Kd came out at 15.7 ± 1.1 nM.

In turn, B4 had a Kd of 43 ± 4 nM. In turn, B5 returned a Kd of 3.18 ± 0.24 nM. For B6, the dissociation constant (Kd) is 43 ± 9 nM. Molecule B7 came in with a Kd of 28.4 ± 3.2 nM.

Regarding B8, binding was put at a Kd of 8.4 ± 0.4 nM. This Kd lies about 3.4-fold lower than the previous one. For B9, binding was characterised by a dissociation constant (Kd) of 5.5 ± 0.4 nM. In the case of B10, binding was put at a Kd of 5.9 ± 0.6 nM. In the case of B11 it was 13.9 ± 2.1 nM; in that of B12, 5.94 ± 0.29 nM. With B13, binding was characterised by a dissociation constant (Kd) of 57 ± 5 nM. Molecule B14 yielded a dissociation constant Kd of 36 ± 5 nM. In the case of B15 it was 24.1 ± 2 nM; in that of B16, 5.9 ± 0.5 nM; in that of B17, 5.2 ± 0.5 nM. On to B18, for which the dissociation constant Kd was determined as 21 ± 4 nM. Against the preceding molecule, the Kd is about 4-fold higher. B19 registered a dissociation constant (Kd) of 16.5 ± 0.6 nM.

In the case of B20, the Kd stood at 51 ± 11 nM. This Kd is about 3.1-fold higher than that of the molecule before. In the case of B21 it was 18.8 ± 1 nM. On to B22, for which the affinity, expressed as Kd, was 61 ± 22 nM.

B23 displayed a Kd of 52 ± 7 nM.

As for B24, the Kd turned out to be 16.5 ± 1.7 nM. In the case of B25 it was 43 ± 15 nM. Turning to B26, the dissociation constant (Kd) was found to be 55 ± 4 nM. On to B27, for which the Kd amounted to 19.2 ± 0.6 nM.

With B28, the Kd came to 45 ± 9 nM. Against the preceding molecule, the Kd is about 2.3-fold higher.

For the molecule B29, the dissociation constant (Kd) was about 90 nM. The molecule B30 gave a Kd of 9.4 ± 0.6 nM. The molecule B31 came in with a Kd of 55 ± 6 nM. As for B32, the dissociation constant Kd worked out at 10.3 ± 0.5 nM. The molecule B33 showed a Kd of 57 ± 5 nM.
